What was measured:
Assay in all cases: SPR, ratio of KD to KD of WT
FVII(a) variant V252A = molecular target: T1, FVII(a) variant V252A (human, UniProt P08709 61-466)
T1 construct: hFVII alanine variant in cell culture supernatant
T1 sequence: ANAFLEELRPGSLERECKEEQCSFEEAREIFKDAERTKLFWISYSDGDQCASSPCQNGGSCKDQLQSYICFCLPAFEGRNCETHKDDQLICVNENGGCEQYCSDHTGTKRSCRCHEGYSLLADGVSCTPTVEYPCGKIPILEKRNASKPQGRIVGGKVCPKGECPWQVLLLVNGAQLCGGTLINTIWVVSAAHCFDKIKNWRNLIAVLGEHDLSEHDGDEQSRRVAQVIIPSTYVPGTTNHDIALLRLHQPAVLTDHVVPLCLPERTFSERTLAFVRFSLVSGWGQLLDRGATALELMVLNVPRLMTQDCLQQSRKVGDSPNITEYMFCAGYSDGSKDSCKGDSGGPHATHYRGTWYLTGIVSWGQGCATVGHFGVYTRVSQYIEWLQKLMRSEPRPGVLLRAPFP
Method: (§1) The running buffer was prepared by diluting 10-fold the 10×HBS-P buffer (supplied by GE Healthcare) and supplemented with 1 mg/ml BSA and 5 mM CaCl2 to give 10 mM HEPES, 150 mM NaCl, 0.05% v/v Polysorbate 20, pH 7.4, 5 mM CaCl2, 1 mg/ml bovine serum albumin (BSA). […] Regeneration of the chip was achieved using 10 mM HEPES, 150 mM NaCl, 20 mM EDTA, 0.05 v/v Polysorbate 20, pH 7.4. Binding data were analysed according to a 1:1 Kinetic model and steady state analysis using BiaEvaluation 4.1 supplied by the manufacturer (Biacore AB, Uppsala, Sweden). Wherever possible, ka, kd and KD values from 1:1 kinetic fitting model are reported. […] An amino acid residue is considered a hot-spot residue if substitution of that amino acid residue with alanine results in an affinity reduction of ten (10) fold or more relative to the wild type.

FVII(a) variant R392A = molecular target: T2, FVII(a) variant R392A (human, UniProt P08709 61-466)
T2 construct: hFVII alanine variant in cell culture supernatant
T2 sequence: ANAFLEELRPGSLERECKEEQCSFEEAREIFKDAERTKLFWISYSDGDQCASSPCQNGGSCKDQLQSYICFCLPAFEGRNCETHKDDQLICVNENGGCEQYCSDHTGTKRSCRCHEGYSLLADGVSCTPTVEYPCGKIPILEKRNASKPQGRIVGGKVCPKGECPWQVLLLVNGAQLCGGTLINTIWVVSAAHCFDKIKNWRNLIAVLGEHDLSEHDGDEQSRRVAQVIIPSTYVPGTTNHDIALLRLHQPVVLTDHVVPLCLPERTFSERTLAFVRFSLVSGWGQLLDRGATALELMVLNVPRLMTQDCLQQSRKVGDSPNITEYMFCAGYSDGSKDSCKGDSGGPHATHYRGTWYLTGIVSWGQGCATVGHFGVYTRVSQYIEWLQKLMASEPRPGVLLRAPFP
Method: as §1

FVII(a) WT = molecular target: T3, FVII(a) WT (human, UniProt P08709 61-466)
T3 construct: also called wild type human FVII(a)
T3 sequence: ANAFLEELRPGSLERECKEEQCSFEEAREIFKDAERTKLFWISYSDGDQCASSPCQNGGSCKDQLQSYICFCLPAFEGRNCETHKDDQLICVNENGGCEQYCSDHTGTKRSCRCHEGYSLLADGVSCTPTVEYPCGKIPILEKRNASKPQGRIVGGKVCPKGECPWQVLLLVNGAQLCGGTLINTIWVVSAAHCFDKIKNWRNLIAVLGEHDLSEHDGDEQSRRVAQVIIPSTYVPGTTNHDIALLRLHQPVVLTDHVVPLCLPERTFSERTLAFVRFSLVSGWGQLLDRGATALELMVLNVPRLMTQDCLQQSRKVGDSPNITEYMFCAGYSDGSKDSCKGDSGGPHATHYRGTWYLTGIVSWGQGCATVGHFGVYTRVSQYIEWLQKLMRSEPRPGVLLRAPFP
Method: as §1

FVII(a) variant H115A = molecular target: T4, FVII(a) variant H115A (human, UniProt P08709 61-466)
T4 construct: hFVII alanine variant in cell culture supernatant
T4 sequence: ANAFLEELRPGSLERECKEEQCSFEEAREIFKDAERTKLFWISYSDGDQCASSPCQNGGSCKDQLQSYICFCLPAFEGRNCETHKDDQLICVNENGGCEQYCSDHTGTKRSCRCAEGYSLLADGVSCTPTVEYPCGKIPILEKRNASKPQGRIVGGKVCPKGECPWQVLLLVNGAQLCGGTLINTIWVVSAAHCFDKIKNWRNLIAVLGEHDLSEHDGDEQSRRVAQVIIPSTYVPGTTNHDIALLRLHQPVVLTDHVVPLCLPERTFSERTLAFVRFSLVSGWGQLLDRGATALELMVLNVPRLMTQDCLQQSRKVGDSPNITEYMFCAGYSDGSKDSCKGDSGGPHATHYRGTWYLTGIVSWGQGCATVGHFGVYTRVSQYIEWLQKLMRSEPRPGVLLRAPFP
Method: as §1

FVII(a) variant V131A = molecular target: T5, FVII(a) variant V131A (human, UniProt P08709 61-466)
T5 construct: hFVII alanine variant in cell culture supernatant
T5 sequence: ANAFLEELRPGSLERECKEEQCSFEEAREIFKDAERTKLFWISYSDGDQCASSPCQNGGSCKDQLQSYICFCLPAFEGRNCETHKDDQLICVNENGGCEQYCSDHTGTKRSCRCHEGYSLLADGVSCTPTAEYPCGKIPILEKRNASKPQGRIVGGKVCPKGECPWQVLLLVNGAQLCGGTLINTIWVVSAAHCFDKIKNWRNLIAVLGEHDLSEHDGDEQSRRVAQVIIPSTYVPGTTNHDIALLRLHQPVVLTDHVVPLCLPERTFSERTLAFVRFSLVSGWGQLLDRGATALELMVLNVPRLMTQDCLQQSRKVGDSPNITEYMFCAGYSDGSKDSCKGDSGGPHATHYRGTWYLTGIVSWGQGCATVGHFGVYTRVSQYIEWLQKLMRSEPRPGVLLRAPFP
Method: as §1

Fold diff (Variant/WT) (FVII(a) variant V252A): 0.9 fold
Fold diff (Variant/WT) (FVII(a) variant R392A): 142 fold
Fold diff (Variant/WT) (FVII(a) WT): 1 fold
Fold diff (Variant/WT) (FVII(a) variant H115A): 26.8 fold
Fold diff (Variant/WT) (FVII(a) variant V131A): 17.1 fold
B1: mAb0842(OA) (antibody, human IgG4 S228P, kappa)
heavy: QVQLQESGPGLVKPSQTLSLTCTVSGYSISSDSAWSWIRQPPGKGLEWIGYIQYSGSTNYNPSLKSRVTISRDTSKNQFSLKLSSVTAADTAVYYCARSVNYYGNSFAVGYWGQGTLVTVSSASTKGPSVFPLAPCSRSTSESTAALGCLVKDYFPEPVTVSWNSGALTSGVHTFPAVLQSSGLYSLSSVVTVPSSSLGTKTYTCNVDHKPSNTKVDKRVESKYGPPCPPCPAPEFLGGPSVFLFPPKPKDTLMISRTPEVTCVVVDVSQEDPEVQFNWYVDGVEVHNAKTKPREEQFNSTYRVVSVLTVLHQDWLNGKEYKCKVSNKGLPSSIEKTISKAKGQPREPQVYTLPPSQEEMTKNQVSLSCAVKGFYPSDIAVEWESNGQPENNYKTTPPVLDSDGSFFLVSRLTVDKSRWQEGNVFSCSVMHEALHNHYTQKSLSLSLGK
light: EIVLTQSPATLSLSPGERATLSCRASQGISDYLHWYQQKPGEAPRLLIKYTSQPATGIPARFSGSGSGTDFTLTISSLEPEDFAVYYCQNGHSFPLTFGQGTKLEIKRTVAAPSVFIFPPSDEQLKSGTASVVCLLNNFYPREAKVQWKVDNALQSGNSQESVTEQDSKDSTYSLSSTLTLSKADYEKHKVYACEVTHQGLSSPVTKSFNRGEC
chain: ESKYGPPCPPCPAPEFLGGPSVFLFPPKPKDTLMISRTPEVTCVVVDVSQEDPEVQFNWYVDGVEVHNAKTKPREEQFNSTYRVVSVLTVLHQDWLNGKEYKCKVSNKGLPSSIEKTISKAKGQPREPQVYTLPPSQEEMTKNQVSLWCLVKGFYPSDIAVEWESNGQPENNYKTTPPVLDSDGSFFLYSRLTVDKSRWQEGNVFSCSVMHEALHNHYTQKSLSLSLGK
notes: also called monovalent humanized 11F2 antibody; one-armed anti-FVII(a) antibody

Source: US20220064329A1 (Novo Nordisk, published 2022)
